# In the RNAGym collection of RNA variant scans (doi:10.1021/acssynbio.7b00057):
# B1: Pistol ribozyme (parent)
# chain: GGGUCGUUGUUCCAUAAUCGCGUGGAUAUGGCACGCAAGUUUCUACCGGGCACCGUAAAUGUCCGACUGGAGCCGUUCGGGCGGCUAUAAACAGACCUCAGGCCCGAAGCGUGGCGGCACCUGCCGCCGGUGGUAAAAAAGAUCGGAAGAGCACACGUCU
# Variants of: B1
# Test: aptazyme ON/OFF ratio, guanine; higher = stronger switching; co-transcriptional cleavage with and without guanine
row,Variant,aptazyme ON/OFF ratio
1,U7A U8C G9C U10C C12G C13G,1.12
2,U7G U8A U10G U11C C12U C13U,1.1
3,U10C U11G C13G,1.22
4,U8C G9A U10C U11G C12A C13U,1.4
5,U7G G9A U10C U11G C12G C13G,1.06
6,G9C U10A U11A,2.14
7,U7C U8G G9U U10C C12U,1.4
8,G9C U10G U11C C12G,1.17
9,U7C U8A U10A U11A C12A C13G,1.17
10,U7G U10A C12U C13A,1.2
11,G9C U10C U11C C13G,1.03
12,G9A U11G,2.2
13,U8G G9C U10C U11A C12G C13U,1.11
14,U7G U8A U10G C12G C13G,1.18
15,U7A U8C G9U U10A C12A C13A,1.12
16,U7A U8C G9U U11C,1.1
17,U7G U8G G9C U10A C12A,1.03
18,U7C U8A G9U U10A U11A C12G C13U,1.28
19,U7A G9A U10G,1.53
20,U7A U8A G9U U10G U11C C12G,1.2
21,U7A U8C G9A U11A C12A C13U,1.17

row,Variant,aptazyme ON/OFF ratio
1,U8G G9C U10A U11G C12G C13G,1.31
2,U7A U8A U10C U11G C13G,1.2
3,G9C U10C U11C,0.976
4,U10G U11G C12U C13A,1.32
5,U7A U8C G9U U10A C13G,1.08
6,U7G U8C U10G U11C,2.14
7,U7A G9U U10C C12U,1.22
8,U8C G9A U10G U11G C12U,1.24
9,U7G U8A G9U U10C U11G C13U,1.09
10,U7A G9C U10A C13G,1.08
11,U7G U8C U10G U11G C12U C13G,1.29
12,U7C G9C U11G,1.06
13,U8C G9U U10A C12U C13A,1.18
14,U7A U8A G9C U10C U11A C12G,1.06
15,U8G G9A U11C C12U,1.07
16,U7A G9U U10G C12G C13U,1.25
17,U7A U8G G9C U10G U11G,1.25
18,U7A U8C U11G C12U C13U,1.1
19,U8A G9U U10A U11G C13G,1.08
20,U7C U10A C12G C13G,1.14
21,U7G U8A G9A U10A U11A C12G C13G,1.15

row,Variant,aptazyme ON/OFF ratio
1,U7A U8G G9C U11C C12A C13G,1.18
2,U8G G9A U10G U11C C12U C13U,1.06
3,U7C G9U C12A C13U,1.19
4,U7C U8A G9C U10G U11G C13U,1.14
5,U8C G9A C12A C13U,1.17
6,U11C C13A,1.2
7,G9U U10C U11G C12U,2.12
8,U8C G9C U10G U11C C12A C13G,1.14
9,U7G U8A U10A U11C C12G C13G,1.07
10,U7A U8C G9C U10C U11A C12A,1.07
11,U7A U8A U10A U11A C12G C13G,1.45
12,U7C G9A U10C U11A C12G C13U,1.18
13,U7A U8G U11C C12U C13G,1.03
14,U7A G9A U11C C12U C13G,1.27
15,U8C G9U U11A C12U,1.39
16,U7A U8C G9U U10G U11A C12A,1.14
17,U7A U8G G9U U11A C12U C13G,1.26
18,U8G G9A U11C,1.05
19,U7A U10C U11A C12U C13G,1.14
20,U7A U8C G9U U11G C12G C13A,1.22
21,U7A U8G G9C U10C C12G C13G,1.2

row,Variant,aptazyme ON/OFF ratio
1,U8C G9C U10G U11G,1.11
2,U8A G9A U11A,1.39
3,U7G U8G U10C U11C C12G C13G,1.2
4,U7C U8A U11C C12U,1.44
5,U7C U8A U11C C12A,1.35
6,U7C U8G G9C U11A C12U,1.28
7,U8C G9C U10A C12G C13G,1.15
8,U7G U8C G9C U10C C12U C13G,1.13
9,U7A U8C G9U U10C U11A,1.23
10,U7G U8G U10C U11C C12A C13U,1.22
11,U7C U8C G9U U10G U11C C13A,1.29
12,U8C G9A U10C C12U C13A,1.29
13,U8A U10C C13U,1.19
14,U8A U10G U11A C12A C13U,1.11
15,U8C G9U U10A U11A C12G C13A,1.2
16,U7G U8C U11G C12A C13U,1.19
17,U8C G9C U10G C12G,1.19
18,U7C U8C G9U U10G U11G C12G C13U,1.06
19,U7C U8C G9A U10A U11G C12A C13A,1.09
20,U7G U8G G9A U11C C12A C13U,1.41
21,U7G U8C G9A U11A C13G,1.03
